Measurements taken from article PMC8578495.
Like-named read-outs stand apart in the source and are kept apart here.

| Substance | expression_or_secretion (ubiquitination at K827) | expression_or_secretion (ubiquitination at K86) | expression_or_secretion (ubiquitination at K848) |
| --- | --- | --- | --- |
| Mps1: K827R | increases | – | – |
| Mps1: RRR (K86R, K827R, K848R) | increases | increases | increases |
| Mps1: K86R | – | increases | – |
| Mps1: K848R | – | – | increases |
